From patent publication US10752676B2 (UCB Biopharma SPRL, priority 2011, dated 2020)

Key:
[1] = system: Clostridium difficile strain ATCC43596; experiment: Anti-C. difficile toxin Mab hamster infection study; assay type: in vivo, Golden Syrian hamsters; conditions: 5 mg/kg twice a day for 5 days (p.o.) on days 1-5
Method: The hamster infection study was performed by Ricerca Biosciences LLC, Cleveland, Ohio, USA. The study protocol was approved by the Ricerca IACUC committee. Active and control components (composition and dose) were blinded to Ricerca staff until after completion of the planned 28 day study period.
Golden Syrian male hamsters (weight 82-103 g, 54 days old) were individually housed in HEPA filtered disposable cages and fed Teklad Global Diet 2016 and water ad libitum. After acclimatisation, hamsters were pre-dosed (i.p.) with Mab mixtures or PBS (vehicle control) once a day for each of 4 days: days −3, −2, −1 and 0. Two doses of Mab were investigated: high dose=50 mg/kg each of anti-TcdA and anti-TcdB components and low dose 5 mg/kg each of anti-TcdA and anti-TcdB components.
Hamsters were sensitised (day −1) with 50 mg/kg of Clindamycin phosphate in PBS (s.c.) before being challenged 1 day later (day 0) with 3.4×106 c.f.u. of vegetative cells from strain ATCC43596. […]
Viability checks were performed on animals twice a day, animals found to be in extremis were euthanised and counted as dead. Body weights were determined on each day of dosing, then twice weekly and before euthanising survivors. […] Survival curves were analysed using the P value from the log rank test compared to the Bonferroni corrected threshold of P=0.005. […]

[2] = Estimation of isoelectric point (pI) by capillary IEF; assay type: physicochemical
Method: Samples were prepared by mixing the following: 30 ul Protein sample at 2 mg/ml, 0.35% Methylcellulose, 4% pH3-10 ampholytes (Pharmalyte), synthetic pI markers (4.65 and 9.77), 1 ul of each stock solution, and HPLC grade water to make up the final volume to 200 ul. The mixture was then analysed using iCE280 IEF analyzer (pre-focusing at 1500V for 1 min followed by focusing at 3000V for 6 mins). The calibrated electropherograms were then integrated using Empower software (from Waters)

[3] = Thermal stability (Tm) measured via Thermofluor assay; assay type: physicochemical; conditions: PBS pH 7.40
Method: This method uses Sypro orange fluorescent dye to monitor the unfolding process of protein domains. The dye binds to exposed hydrophobic regions that become exposed as a consequence of unfolding which results in a change to the emission spectrum.
The sample (5 ul at 1 mg/ml) is mixed with a 5 ul of a stock solution of Sypro orange (30×) and the volume made up to 50 ul with PBS, pH 7.40.
10 ul aliquots of this solution is applied to wells in a 384 well plate (n=4).
The plate is placed in a 7900HT fast real-time PCR system containing a heating device for accurate temperature control. The temperature is increased from 20° C. to 99° C. (Ramp rate of 1.1° C./min). A CCD device simultaneously monitors the fluorescence changes in the wells. An algorithm is used to process intensity data and take into account multiple transitions.

TcdA456 = TcdA456 (Clostridioides difficile, UniProt P16154); conditions: Purified Mab 5 point titration
Method: (§1) Kinetic constants for the interactions of anti-C. difficile TcdA and TcdB antibodies were determined by surface plasmon resonance conducted on a BIAcore 3000 using CM5 sensor chips. All experiments were performed at 25° C. Affinipure F(ab′)2 fragment goat anti-human IgG, Fc fragment specific (Jackson ImmunoResearch) was immobilised on a CM5 Sensor Chip (GE) via amine coupling chemistry to a capture level of ≈7000 response units (RUs).
(§2) Double referenced background subtracted binding curves were analysed using the BIAevaluation software (version 3.2) following standard procedures. Kinetic parameters were determined from the fitting algorithm

TcdB1234 = TcdB1234 (Clostridioides difficile, UniProt P18177); conditions: Purified Mab 3 point titration
Method: as §1, §2

With `CN[C@H](CC(C)C)C(=O)N[C@H]1C(=O)N[C@@H](CC(N)=O)C(=O)N[C@H]2C(=O)N[C@H]3C(=O)N[C@H](C(=O)N[C@H](C(=O)O)c4cc(O)cc(O)c4-c4cc3ccc4O)[C@H](O)c3ccc(c(Cl)c3)Oc3cc2cc(c3O[C@@H]2O[C@H](CO)[C@@H](O)[C@H](O)[C@H]2O[C@H]2C[C@](C)(N)[C@H](O)[C@H](C)O2)Oc2ccc(cc2Cl)[C@H]1O` [vancomycin] the survival [1] was “all died on days +10 and +11”.

B1: CA995: humanised anti-toxin A IgG1; light chain variable SEQ ID NO: 37, heavy SEQ ID NO: 39 (antibody, V domains shown)
VH: EVQLVESGGGLVQPGGSLRLSCTASGFSLSNYDMIWVRQAPGKGLEYIGFINTGGITYYASWAKGRFTISRDSSTVYLQMNSLRAEDTATYFCARVDDYIGAWGAGLWGQGTLVTVS
VL: DVVMTQSPSTLSASVGDRVTITCQASQSINNYFSWYQQKPGKAPKLLIYGAANLASGVPSRFKGSGSGTEYTLTISSLQPDDFATYSCQNNYGVHIYGAAFGGGTKVEIK
modifications: Antibody variable region for anti-TcdA antibody 995 (heavy chain); Antibody variable region for anti-TcdA antibody 995
For B1, the “measured pI” value [2] was 8.5, the “Tm(Fab) in PBS” value [3] was 71 °C and the “ka” value (TcdA456) was 287000 M⁻¹ s⁻¹. The “kd” value (TcdA456) was 3.42e-05 s⁻¹.

B2: 1134.g5: anti-toxin B antibody; light chain variable SEQ ID NO: 147, heavy SEQ ID NO: 149 (antibody, V domains shown)
VH: EVQLQESGPGLVKPSETLSLTCTVSGFSLNSYTITWVRQPPGKGLEWIAAISGGGSTYFNSALKSRVTISRDTSKSQVSLKLSSVTAADTAVYYCTRPRWYPRSYFDYWGRGTLVTVS
VL: DVQLTQSPSFLSASVGDRVTITCKASKSISNHLAWYQEKPGKANKLLIHSGSTLQPGTPSRFSGSGSGTEFTLTISSLQPEDFATYYCQQYDEYPYTFGQGTRLEIK
modifications: Antibody variable region for anti-TcdB antibody 1134 (heavy chain); Antibody variable region for anti-TcdB antibody 1134
For B2, the “measured pI” value [2] was 9.2, the “ka” value (TcdB1234) was 509000 M⁻¹ s⁻¹ and the “kd” value (TcdB1234) was 2.45e-05 s⁻¹. For the same molecule, the “Tm(CH2)” value [3] was 69.2 °C and the “Tm(Fab) in PBS” value [3] was 76.4 °C.
